Data on two molecules can be found in patent publication US20160137740A1 (AstraZeneca / MedImmune, published 2016).

The target in one experiment is T1, Mouse OX40 (mouse, UniProt P47741 20-272).
T1 construct: also called mOX40; murine OX40
T1 sequence: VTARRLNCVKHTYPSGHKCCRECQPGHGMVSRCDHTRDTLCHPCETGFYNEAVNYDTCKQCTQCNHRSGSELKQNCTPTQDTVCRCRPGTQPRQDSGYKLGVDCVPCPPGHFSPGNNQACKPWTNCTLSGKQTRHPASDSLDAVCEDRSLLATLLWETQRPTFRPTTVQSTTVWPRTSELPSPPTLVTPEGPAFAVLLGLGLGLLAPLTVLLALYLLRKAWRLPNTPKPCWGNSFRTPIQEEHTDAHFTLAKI
Briefly: flow cytometry on activated primary mouse CD4+ T cells. As to the method: Mouse CD4⁺ T cells (150,000 per well in 100 μL complete medium) were cultured overnight in 96-well plates coated with 2 μg/mL each hamster anti-mouse CD3 and hamster anti-mouse CD28 antibodies to activate T cells and induce OX40 expression. Activated CD4⁺ T cells were removed from the incubation plate and 100,000 cells were transferred to each well of a non-tissue culture-treated 96-well round-bottom plate for binding assays and washed once with FACS buffer. Binding was performed with 10 μg/mL of OX40mAb24, 9B12 and rat anti-mouse OX40, clone OX86 (positive control) antibodies each serially diluted 3-fold in FACS buffer for a 10-point data curve. For negative controls, 10 μg/mL R347 human IgG1, MOPC-21 mouse IgG1 or RTK2071 rat IgG1 were diluted 6-fold for a 3 point data curve. FACS buffer (50 μL) containing OX40mAb24, or antibodies, was added to CD4⁺ T cells in duplicate and incubated. Following primary incubation, cells were washed with 200 μL of 4° C. […] Following secondary antibody incubation, cells were washed with 4° C. FACS buffer (200 μL per wash) and suspended in 100 μL FACS buffer for flow cytometry analysis on a BD LSRII flow cytometer as described in Section 2.3.
For orientation: A flow cytometer gives signals particle by particle.

For experiment [1], the target named is T2, Recombinant human TNFRSF1β (TNFRII) (human, UniProt P20333 23-257).
T2 construct: Plate-adsorbed antigen of the ELISA; also called TNFR2; TNFRSF1B
T2 sequence (looked up): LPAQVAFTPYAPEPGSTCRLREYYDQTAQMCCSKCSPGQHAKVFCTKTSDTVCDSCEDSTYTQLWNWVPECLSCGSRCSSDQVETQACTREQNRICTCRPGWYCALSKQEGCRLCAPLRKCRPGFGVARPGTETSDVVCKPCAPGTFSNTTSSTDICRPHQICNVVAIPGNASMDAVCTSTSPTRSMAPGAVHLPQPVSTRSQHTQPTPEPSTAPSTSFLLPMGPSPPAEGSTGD
The experiment in a line: ELISA, plate coated with a dilution series of the recombinant TNFRSF protein [panel A]. The procedure:
(§1) An eight point, two-fold dilution series of each recombinant human TNFRSF protein was prepared after dilution of stock proteins to 5 μg/mL in PBS. Subsequently, 50 μL of each antigen dilution was transferred in duplicate to wells of a Nunc 96-well MaxiSorp flat bottom plate, and incubated overnight at 4° C. to adsorb proteins to the plate. Afterwards, plates were washed three times with PBS in a BioTek® plate washer to remove unbound protein. Anti OX40 mAb29, 9B12, and control antibodies were diluted in PBS to a final concentration of 10 μg/mL, and 50 μL of mAb were added to each well and incubated at room temperature for one hour to bind mAb to plate-bound protein. Thereafter, wells were washed with PBS/Tween-20 0.1% (volume/volume) using a BioTek® plate washer. HRP conjugated goat anti-human or goat anti-mouse secondary antibodies at 10 μg/mL was added to each well and incubated at room temperature for 1 hour. After three washes in PBS/Tween-20 0.1%, 50 μL of TMB substrate was added to each well and incubated at room temperature for 5 minutes to develop the colorimetric product. Reactions were stopped by adding 50 μL of 0.5 molar H₂SO₄ to wells, and plates read immediately at 450 nm using an Envision C plate reader for detection of the colorimetric product.
On the technique in general: An ELISA detects its analyte on a solid surface through an enzyme-linked reagent.

Experiment [2] has as its target T3, Recombinant human TNFRSF5 (CD40) (human, UniProt P25942 21-193).
T3 construct: Plate-adsorbed antigen of the ELISA
The experiment is described as above. The procedure: as §1

Experiment [3] deals with T4, Recombinant human TNFRSF14 (HVEM) (human, UniProt Q92956 39-202, limits assumed).
T4 construct: Plate-adsorbed antigen of the ELISA
T4 sequence (looked up): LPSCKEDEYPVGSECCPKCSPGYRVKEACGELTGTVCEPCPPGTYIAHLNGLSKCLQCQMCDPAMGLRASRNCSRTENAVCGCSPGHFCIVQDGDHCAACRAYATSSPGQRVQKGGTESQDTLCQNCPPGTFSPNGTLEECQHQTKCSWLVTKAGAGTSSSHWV
The description is as above. The procedure:
as §1

Experiment [4] concerns the target T5, Recombinant human TNFRSF16 (NGFR) (human, UniProt P08138 29-250).
T5 construct: Plate-adsorbed antigen of the ELISA
T5 sequence (looked up): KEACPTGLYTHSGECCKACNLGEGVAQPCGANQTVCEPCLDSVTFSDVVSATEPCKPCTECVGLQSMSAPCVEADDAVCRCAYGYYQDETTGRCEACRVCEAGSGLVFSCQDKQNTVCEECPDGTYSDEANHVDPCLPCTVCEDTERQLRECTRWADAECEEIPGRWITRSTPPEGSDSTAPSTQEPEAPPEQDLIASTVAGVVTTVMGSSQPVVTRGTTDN
The experiment is described as above. The procedure: as §1

Experiment [5] has as its target T6, Recombinant human TNFRSF21 (DR6) (human, UniProt O75509 42-349, limits assumed).
T6 construct: Plate-adsorbed antigen of the ELISA
T6 sequence (looked up): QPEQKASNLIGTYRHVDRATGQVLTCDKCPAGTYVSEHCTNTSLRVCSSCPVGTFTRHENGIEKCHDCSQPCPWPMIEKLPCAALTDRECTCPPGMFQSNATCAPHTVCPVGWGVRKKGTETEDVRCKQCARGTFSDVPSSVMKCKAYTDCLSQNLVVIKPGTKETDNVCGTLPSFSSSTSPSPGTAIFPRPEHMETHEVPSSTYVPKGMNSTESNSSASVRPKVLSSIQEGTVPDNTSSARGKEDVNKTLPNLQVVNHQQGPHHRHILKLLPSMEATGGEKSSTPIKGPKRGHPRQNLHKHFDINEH
Described as above. The procedure: as §1

In experiment [6] the target is T7, Recombinant human TNFRSF6 (FAS) (human, UniProt P25445 26-173).
T7 construct: Plate-adsorbed antigen of the ELISA
T7 sequence (looked up): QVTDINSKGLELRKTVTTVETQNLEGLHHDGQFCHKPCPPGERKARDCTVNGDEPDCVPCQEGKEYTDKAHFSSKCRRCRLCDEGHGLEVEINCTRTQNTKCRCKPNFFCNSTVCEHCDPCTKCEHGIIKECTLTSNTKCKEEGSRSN
The description is as above. The procedure:
as §1

Experiment [7] addresses T8, Recombinant human TNFRSF11B (OPG) (human, UniProt O00300 22-401, limits assumed).
T8 construct: Plate-adsorbed antigen of the ELISA; also called osteoprotegerin
T8 sequence (looked up): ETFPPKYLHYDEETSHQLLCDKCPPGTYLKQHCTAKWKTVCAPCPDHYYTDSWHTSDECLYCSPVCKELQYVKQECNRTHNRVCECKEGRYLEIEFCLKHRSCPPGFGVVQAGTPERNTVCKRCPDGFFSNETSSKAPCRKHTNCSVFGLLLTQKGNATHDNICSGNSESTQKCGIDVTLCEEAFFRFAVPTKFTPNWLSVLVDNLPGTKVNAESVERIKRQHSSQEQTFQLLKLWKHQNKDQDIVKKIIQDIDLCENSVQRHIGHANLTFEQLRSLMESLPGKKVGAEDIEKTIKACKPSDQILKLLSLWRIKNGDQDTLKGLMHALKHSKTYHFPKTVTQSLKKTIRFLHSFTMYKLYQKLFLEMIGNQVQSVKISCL
The experiment is described as above. The procedure: as §1

Experiment [8] deals with T9, Recombinant human TNFRSF11A (RANK) (human, UniProt Q9Y6Q6 30-212).
T9 construct: Plate-adsorbed antigen of the ELISA; also called CD265
T9 sequence (looked up): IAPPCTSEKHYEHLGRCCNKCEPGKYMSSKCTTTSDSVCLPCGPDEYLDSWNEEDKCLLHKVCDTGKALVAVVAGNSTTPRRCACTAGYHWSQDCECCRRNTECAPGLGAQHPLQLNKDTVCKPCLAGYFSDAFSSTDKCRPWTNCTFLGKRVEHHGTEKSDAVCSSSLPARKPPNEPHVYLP
The description is as above. As to the method: as §1

Experiment [9] deals with T10, Recombinant human TNFRSF9 (CD137) (human, UniProt Q07011 24-186, limits assumed).
T10 construct: Plate-adsorbed antigen of the ELISA
The description is as above. The procedure:
as §1

Experiment [10] addresses T11, Recombinant human TNFRSF18 (GITR) (human, UniProt Q9Y5U5 26-162, limits assumed).
T11 construct: Plate-adsorbed antigen of the ELISA
T11 sequence (looked up): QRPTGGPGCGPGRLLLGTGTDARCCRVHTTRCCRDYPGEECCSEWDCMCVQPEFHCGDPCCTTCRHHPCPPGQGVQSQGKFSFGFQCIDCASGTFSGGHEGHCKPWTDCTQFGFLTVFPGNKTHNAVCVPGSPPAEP
The description is as above. As to the method:
as §1

The target of experiment [11] is T12, Recombinant human TNFRSF3 (LTβR) (human, UniProt P36941 28-227, limits assumed).
T12 construct: Plate-adsorbed antigen of the ELISA
T12 sequence (P36941 28-227 limits assumed): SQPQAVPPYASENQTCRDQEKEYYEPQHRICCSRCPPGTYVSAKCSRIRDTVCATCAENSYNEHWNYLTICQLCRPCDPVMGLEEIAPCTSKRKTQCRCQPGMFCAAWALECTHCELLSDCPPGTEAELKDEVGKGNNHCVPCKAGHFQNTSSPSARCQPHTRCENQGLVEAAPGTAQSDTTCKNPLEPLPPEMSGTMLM
The experiment is described as above. As to the method: as §1

T3 sequence (P25942 21-193 limits assumed): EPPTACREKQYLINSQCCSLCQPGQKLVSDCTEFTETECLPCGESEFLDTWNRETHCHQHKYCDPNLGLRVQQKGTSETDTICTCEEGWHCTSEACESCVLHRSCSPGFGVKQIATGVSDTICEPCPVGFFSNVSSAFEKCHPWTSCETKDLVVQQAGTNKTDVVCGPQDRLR

B1: Rat anti-mouse OX40, clone OX86 (antibody, V domains shown)
VH: QVQLKESGPGLVQPSQTLSLTCTVSGFSLTGYNLHWVRQPPGKGLEWMGRMRYDGDTYYNSVLKSRLSISRDTSKNQVFLKMNSLQTDDTAIYYCTRDGRGDSFDYWGQGVMVTVSS
VL: DIVMTQGALPNPVPSGESASITCRSSQSLVYKDGQTYLNWFLQRPGQSPQLLTYWMSTRASGVSDRFSGSGSGTYFTLKISRVRAEDAGVYYCQQVREYPFTFGSGTKLEIK
notes: Rat IgG1κ; also called anti-mouse CD134 (OX86 clone) antibody
For B1, in the experiment with Mouse OX40, the binding result was “binds”.

B2: OX40mAb29 (antibody, human IgG1, kappa)
heavy: QVQLQESGPGLVKPSQTLSLTCAVYGGSFSSGYWNWIRKHPGKGLEYIGYISYNGITYHNPSLKSRITINRDTSKNQYSLQLNSVTPEDTAVYYCARYKYDYDGGHAMDYWGQGTLVTVSSASTKGPSVFPLAPSSKSTSGGTAALGCLVKDYFPEPVTVSWNSGALTSGVHTFPAVLQSSGLYSLSSVVTVPSSSLGTQTYICNVNHKPSNTKVDKRVEPKSCDKTHTCPPCPAPEFEGGPSVFLFPPKPKDTLMISRTPEVTCVVVDVSHEDPEVKFNWYVDGVEVHNAKTKPREEQYNSTYRVVSVLTVLHQDWLNGKEYKCKVSNKALPASIEKTISKAKGQPREPQVYTLPPSREEMTKNQVSLTCLVKGFYPSDIAVEWESNGQPENNYKTTPPVLDSDGSFFLYSKLTVDKSRWQQGNVFSCSVMHEALHNHYTQKSLSLSPGK
light: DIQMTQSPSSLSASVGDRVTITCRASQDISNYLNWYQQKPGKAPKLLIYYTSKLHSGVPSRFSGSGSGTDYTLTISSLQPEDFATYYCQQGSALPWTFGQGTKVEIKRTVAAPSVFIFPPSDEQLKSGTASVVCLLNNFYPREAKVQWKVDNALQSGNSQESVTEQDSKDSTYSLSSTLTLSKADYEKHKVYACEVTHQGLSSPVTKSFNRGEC
notes: also called Anti OX40 mAb29; IgG1 triple mutant (IgG1-TM) version of OX40mAb24
Take B2: the binding result in [1], in experiment [2], in experiment [3], in [4], in experiment [5] and in experiment [6] was “no binding” throughout. For the same molecule, the binding result in [7], in [8], in experiment [9], in [10] and in experiment [11] was “no binding” each time.
